Laboratory results: IntAct's records for PubMed 35512704

B1: Mothers against decapentaplegic homolog 4 (Homo sapiens), Q13485 (parent)
chain: MDNMSITNTPTSNDACLSIVHSLMCHRQGGESETFAKRAIESLVKKLKEKKDELDSLITAITTNGAHPSKCVTIQRTLDGRLQVAGRKGFPHVIYARLWRWPDLHKNELKHVKYCQYAFDLKCDSVCVNPYHYERVVSPGIDLSGLTLQSNAPSSMMVKDEYVHDFEGQPSLSTEGHSIQTIQHPPSNRASTETYSTPALLAPSESNATSTANFPNIPVASTSQPASILGGSHSEGLLQIASGPQPGQQQNGFTGQPATYHHNSTTTWTGSRTAPYTPNLPHHQNGHLQHHPPMPPHPGHYWPVHNELAFQPPISNHPAPEYWCSIAYFEMDVQVGETFKVPSSCPIVTVDGYVDPSGGDRFCLGQLSNVHRTEAIERARLHIGKGVQLECKGEGDVWVRCLSDHAVFVQSYYLDREAGRAPGDAVHKIYPSAYIKVFDLRQCHRQMQQQAATAQAAAAAQAAAVAGNIPGPGSVGGIAPAISLSAAAGIGVDDLRRLCILRMSFVKGWGPDYPRQSIKETPCWIEIHLHRALQLLDEVLHTMPIADPQPLD
partner: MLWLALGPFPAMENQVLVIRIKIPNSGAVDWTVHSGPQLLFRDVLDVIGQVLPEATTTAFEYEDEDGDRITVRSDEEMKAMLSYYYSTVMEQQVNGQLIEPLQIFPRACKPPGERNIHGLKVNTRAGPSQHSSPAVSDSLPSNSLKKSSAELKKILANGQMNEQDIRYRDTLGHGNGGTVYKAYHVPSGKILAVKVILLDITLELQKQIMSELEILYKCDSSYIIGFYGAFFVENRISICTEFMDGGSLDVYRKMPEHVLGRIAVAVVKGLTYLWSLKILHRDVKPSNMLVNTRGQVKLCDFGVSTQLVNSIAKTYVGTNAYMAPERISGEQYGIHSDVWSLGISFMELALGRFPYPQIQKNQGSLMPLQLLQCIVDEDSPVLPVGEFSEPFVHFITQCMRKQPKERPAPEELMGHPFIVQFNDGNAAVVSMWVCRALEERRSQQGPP
B2: Mothers against decapentaplegic homolog 4 (Homo sapiens), Q13485 (parent)
chain: B1 chain
partner: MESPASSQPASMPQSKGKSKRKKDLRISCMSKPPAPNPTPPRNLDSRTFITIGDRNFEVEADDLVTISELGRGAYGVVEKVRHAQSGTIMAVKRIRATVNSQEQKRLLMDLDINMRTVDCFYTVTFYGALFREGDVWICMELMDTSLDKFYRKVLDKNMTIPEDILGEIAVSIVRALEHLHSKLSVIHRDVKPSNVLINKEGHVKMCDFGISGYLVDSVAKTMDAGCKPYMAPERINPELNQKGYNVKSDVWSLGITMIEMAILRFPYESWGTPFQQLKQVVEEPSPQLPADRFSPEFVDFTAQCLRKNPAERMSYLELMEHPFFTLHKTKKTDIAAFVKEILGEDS
B3: Mothers against decapentaplegic homolog 4 (Homo sapiens), Q13485 (parent)
chain: B1 chain
partner: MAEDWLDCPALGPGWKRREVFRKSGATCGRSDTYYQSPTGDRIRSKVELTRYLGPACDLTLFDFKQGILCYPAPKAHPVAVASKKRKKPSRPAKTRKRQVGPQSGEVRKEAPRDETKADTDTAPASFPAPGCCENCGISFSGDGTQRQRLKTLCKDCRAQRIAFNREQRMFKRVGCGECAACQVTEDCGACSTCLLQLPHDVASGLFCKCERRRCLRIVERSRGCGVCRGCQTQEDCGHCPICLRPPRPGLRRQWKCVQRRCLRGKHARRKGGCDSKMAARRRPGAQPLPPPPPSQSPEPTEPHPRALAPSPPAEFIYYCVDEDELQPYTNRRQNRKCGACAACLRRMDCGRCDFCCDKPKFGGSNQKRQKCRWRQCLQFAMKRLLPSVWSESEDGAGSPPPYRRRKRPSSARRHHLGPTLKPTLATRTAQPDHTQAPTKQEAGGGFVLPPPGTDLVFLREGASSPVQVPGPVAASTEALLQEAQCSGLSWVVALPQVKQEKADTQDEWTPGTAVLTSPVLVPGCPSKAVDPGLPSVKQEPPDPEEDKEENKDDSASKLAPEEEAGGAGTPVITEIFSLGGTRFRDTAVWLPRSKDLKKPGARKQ
B4: Mothers against decapentaplegic homolog 4 (Homo sapiens), Q13485 (parent)
chain: B1 chain
partner: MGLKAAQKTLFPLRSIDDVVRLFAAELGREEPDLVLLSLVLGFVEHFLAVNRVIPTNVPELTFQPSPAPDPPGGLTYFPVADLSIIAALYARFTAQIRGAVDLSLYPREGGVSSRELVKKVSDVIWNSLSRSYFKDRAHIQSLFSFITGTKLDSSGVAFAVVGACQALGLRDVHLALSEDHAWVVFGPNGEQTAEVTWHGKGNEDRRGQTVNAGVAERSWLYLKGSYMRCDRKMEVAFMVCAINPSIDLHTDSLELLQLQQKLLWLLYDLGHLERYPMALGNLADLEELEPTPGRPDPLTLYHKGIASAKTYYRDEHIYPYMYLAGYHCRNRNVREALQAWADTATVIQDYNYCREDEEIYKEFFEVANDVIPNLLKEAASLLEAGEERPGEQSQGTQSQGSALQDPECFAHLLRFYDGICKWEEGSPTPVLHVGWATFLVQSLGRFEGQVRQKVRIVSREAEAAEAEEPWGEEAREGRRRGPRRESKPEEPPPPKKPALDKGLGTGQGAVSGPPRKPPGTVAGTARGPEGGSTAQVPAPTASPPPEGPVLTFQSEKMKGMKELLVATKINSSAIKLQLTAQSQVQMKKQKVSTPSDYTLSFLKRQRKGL
B5: Mothers against decapentaplegic homolog 4 (Homo sapiens), Q13485 (parent)
chain: B1 chain
partner: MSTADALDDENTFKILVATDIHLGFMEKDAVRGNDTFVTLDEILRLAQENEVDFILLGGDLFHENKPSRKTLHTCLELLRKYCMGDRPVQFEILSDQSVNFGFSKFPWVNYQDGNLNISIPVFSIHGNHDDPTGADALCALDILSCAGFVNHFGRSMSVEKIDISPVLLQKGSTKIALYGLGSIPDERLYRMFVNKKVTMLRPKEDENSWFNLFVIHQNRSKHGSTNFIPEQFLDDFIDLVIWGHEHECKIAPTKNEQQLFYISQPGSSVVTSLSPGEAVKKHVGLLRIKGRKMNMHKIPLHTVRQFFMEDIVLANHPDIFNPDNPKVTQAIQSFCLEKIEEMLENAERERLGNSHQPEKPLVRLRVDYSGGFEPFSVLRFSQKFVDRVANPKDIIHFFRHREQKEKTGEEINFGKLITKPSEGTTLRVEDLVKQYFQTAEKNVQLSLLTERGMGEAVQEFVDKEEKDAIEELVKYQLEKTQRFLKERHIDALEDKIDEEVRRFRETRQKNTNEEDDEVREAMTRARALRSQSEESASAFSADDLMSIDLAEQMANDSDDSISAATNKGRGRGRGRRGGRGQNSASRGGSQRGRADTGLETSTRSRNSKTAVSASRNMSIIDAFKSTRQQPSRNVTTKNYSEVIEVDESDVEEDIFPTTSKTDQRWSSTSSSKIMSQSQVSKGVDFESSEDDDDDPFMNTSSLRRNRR
B6: Mothers against decapentaplegic homolog 4 (Homo sapiens), Q13485 (parent)
chain: B1 chain
partner: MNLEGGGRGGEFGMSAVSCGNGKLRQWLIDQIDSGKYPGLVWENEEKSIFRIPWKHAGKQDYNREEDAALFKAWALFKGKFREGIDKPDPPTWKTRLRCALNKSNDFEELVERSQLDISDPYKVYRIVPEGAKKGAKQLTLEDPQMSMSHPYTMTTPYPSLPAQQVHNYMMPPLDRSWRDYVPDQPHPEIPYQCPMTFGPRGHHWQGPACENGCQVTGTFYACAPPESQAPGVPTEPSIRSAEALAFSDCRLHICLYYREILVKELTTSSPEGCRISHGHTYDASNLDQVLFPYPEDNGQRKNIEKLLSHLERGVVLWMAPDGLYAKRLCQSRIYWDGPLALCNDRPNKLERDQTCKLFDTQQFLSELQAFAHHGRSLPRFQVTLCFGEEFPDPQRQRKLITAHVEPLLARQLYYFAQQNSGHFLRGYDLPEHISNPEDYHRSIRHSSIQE

Variants of: B1
Conditions: with mp2k5_human MAP2K5, Q13163

Variant | effect of a mutation on the interaction
R361C | with no effect

Variants of: B1
Conditions: with mp2k5_human MAP2K5, Q13163
Remark: another data set of the same source

Variant | effect of a mutation on the interaction
R361H | with no effect

Variants of: B1
Conditions: with mp2k5_human MAP2K5, Q13163
Remark: another data set of the same source

Variant | effect of a mutation on the interaction
D351H | with no effect

Variants of: B1
Conditions: with mp2k5_human MAP2K5, Q13163
Remark: another data set of the same source

Variant | effect of a mutation on the interaction
G386D | with no effect

Variants of: B2
Conditions: with mp2k3_human MAP2K3, P46734

Variant | effect of a mutation on the interaction
D351H | with no effect

Variants of: B2
Conditions: with mp2k3_human MAP2K3, P46734
Remark: another data set of the same source

Variant | effect of a mutation on the interaction
R361C | with no effect

Variants of: B2
Conditions: with mp2k3_human MAP2K3, P46734
Remark: another data set of the same source

Variant | effect of a mutation on the interaction
R361H | with no effect

Variants of: B2
Conditions: with mp2k3_human MAP2K3, P46734
Remark: another data set of the same source

Variant | effect of a mutation on the interaction
G386D | with no effect

Variants of: B3
Conditions: with mbd1_human MBD1, Q9UIS9

Variant | effect of a mutation on the interaction
R361C | with no effect

Variants of: B3
Conditions: with mbd1_human MBD1, Q9UIS9
Remark: another data set of the same source

Variant | effect of a mutation on the interaction
R361H | with no effect

Variants of: B3
Conditions: with mbd1_human MBD1, Q9UIS9
Remark: another data set of the same source

Variant | effect of a mutation on the interaction
G386D | with no effect

Variants of: B3
Conditions: with mbd1_human MBD1, Q9UIS9
Remark: another data set of the same source

Variant | effect of a mutation on the interaction
D351H | with no effect

Variants of: B4
Conditions: with men1_human MEN1, O00255

Variant | effect of a mutation on the interaction
D351H | with no effect

Variants of: B4
Conditions: with men1_human MEN1, O00255
Remark: another data set of the same source

Variant | effect of a mutation on the interaction
G386D | with no effect

Variants of: B4
Conditions: with men1_human MEN1, O00255
Remark: another data set of the same source

Variant | effect of a mutation on the interaction
R361H | with no effect

Variants of: B4
Conditions: with men1_human MEN1, O00255
Remark: another data set of the same source

Variant | effect of a mutation on the interaction
R361C | with no effect

Variants of: B5
Conditions: with mre11_human MRE11, P49959

Variant | effect of a mutation on the interaction
D351H | with no effect

Variants of: B5
Conditions: with mre11_human MRE11, P49959
Remark: another data set of the same source

Variant | effect of a mutation on the interaction
R361H | with no effect

Variants of: B5
Conditions: with mre11_human MRE11, P49959
Remark: another data set of the same source

Variant | effect of a mutation on the interaction
R361C | with no effect

Variants of: B5
Conditions: with mre11_human MRE11, P49959
Remark: another data set of the same source

Variant | effect of a mutation on the interaction
G386D | with no effect

Variants of: B6
Conditions: with irf4_human IRF4, Q15306

Variant | effect of a mutation on the interaction
R361H | with no effect

Variants of: B6
Conditions: with irf4_human IRF4, Q15306
Remark: another data set of the same source

Variant | effect of a mutation on the interaction
R361C | with no effect

Variants of: B6
Conditions: with irf4_human IRF4, Q15306
Remark: another data set of the same source

Variant | effect of a mutation on the interaction
D351H | with no effect

Variants of: B6
Conditions: with irf4_human IRF4, Q15306
Remark: another data set of the same source

Variant | effect of a mutation on the interaction
G386D | with no effect
